# Experimental data as given in the supplement of paper PMC7125110.
# ± gives the standard error. Fewer inactive variants are shown than the library holds.
# B1: glmS ribozyme (parent)
# chain: AUAAAAGCGCCAGAACUACAGAAAUGUAGUUGACGAGGAGGAGGUUUAUCGAAUUUUCGGCGGAUGCCUCCAAA
# Variants of: B1
# Assay: self-cleavage kobs at 2500 uM GlcN6P; higher = faster cleavage; RNA array
# Conditions: with glucosamine-6-phosphate
# Summary of the method: (§1)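 Tracking of barcoded ribozyme variants used a hybridised Cy3 probe at 37 °C, after in situ transcription by E. coli RNA polymerase on sequenced MiSeq chips. The flowed solution held 40 μM to 10 mM glucosamine-6-phosphate in HEPES/KCl/Mg(OAc)2 buffer, and imaging ran over ~14 h. kobs was taken from exponential decay fits of normalised per-tile medians, and kcat and KM from weighted Michaelis–Menten fits.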
row,Variant,self-cleavage kobs at 2500 uM GlcN6P [s⁻¹]
1,AUAAAAGCGCCAGAACUACAGAAAUGUAGUUGACGAGUAGGAGGAUUAUCGAAUUUUCGGCGGAUGCCUCAAAA [G38U U45A C71A],< 1e-05
2,AUAAAAGCGCCAGAACUACAGAAAUGUAGUUGACGAGAAGGAGCUUUAUCGAAUUUUCGGCGGAUGCCUCCAAA [G38A G44C],< 1e-05
3,AUAAAAGCGCCAGAACUACAGAAAUGUAGUUGACGAUGAGGCGGUUAUUCGAAUUAUCGGCGGAUGCCUCCAAA [G37U A42C U47A A48U U56A],< 1e-05
4,AUAAAAGCGCCAGAACUACAGAAAUGUAGUUGACGAAGGGGAGGUUUAUCGAAUUUUCGGCGGAUGCCUCGAAA [G37A A39G C71G],0.000523 ± 0.00013
5,AUAAAAGCGCCAGAACUACAGAAAUGUAGUUGACGGGGAUGAGGGUUAUCGAAUUUUCGGCGGAUGCCUCCAAA [A36G G40U U45G],< 1e-05
6,AUAAAAGCGCCAGAACUACAGAAAUGUAGUUGACGAGCAGUAGGUUUAUCGACUUUUCGGCGGAUGCGUCCAAA [G38C G41U A53C C68G],< 1e-05
7,AUAAAAGCGCCAGAACUACAGAAAUGUAGUUGACGAGAAGGAGGUUUAUCGAAUUUUCGGCAGAUGGCUCCAAA [G38A G62A C67G],< 1e-05
8,AUAAAAGCGCCAGAACUACAGAAAUGUAGUUGACGAGUAGGAGGUUUAUGGAAUUUUCGGCGCAUGCCUCCAAA [G38U C50G G63C],7.85e-05 ± 2.7e-05
9,AUAAAAGCGCCAGAACUACAGAAAUGUAGUUGACGUGGAGGAGGUUUAUCGAAUUUUCGGCGAAUGCCUCCAAA [A36U G63A],< 1e-05
10,AUAAAAGCGCCAGAACUACAGAAAUGUAGUUGACGAAGCCAAGGCUUAUCUAAUUUUGGGCGGAUGCCUCCAAA [G37A A39C G40C G41A U45C G51U C58G],< 1e-05
11,AUAAAAGCGCCAGAACUACAGAAAUGUAGUUGACGAGCAGUGGGUUUAUCGAAUUUUCGGCGGAUGCCUCCAAA [G38C G41U A42G],< 1e-05
12,AUAAAAGCGCCAGAACUACAGAAAUGUAGUUGACGAAGAAGAGGUUUAUCGAAUUAUCGGCGGAUGCCUCCAAA [G37A G40A U56A],0.000109 ± 1.8e-05
13,AUAAAAGCGCCAGAACUACAGAAAUGUAGUUGACGAAGAAGAGGUUUAUCGAAUUGUCGGCGGAUGCCUCCAAA [G37A G40A U56G],5.62e-05 ± 1.8e-05
14,AUAAAAGCGCCAGAACUACAGAAAUGUAGUUGACGAGUAUGAGGUUUAUCGAAUUUUCGGCGGAUGCCUACAAA [G38U G40U C70A],< 1e-05
15,AUAAAAGCGCCAGAACUACAGAAAUGUAGUUGACGGGGAGGAGGUUUAUGGAAUUUUCGGCGGAUGGCUCCAAA [A36G C50G C67G],0.000124 ± 5.6e-05
16,AUAAAAGCGCCAGAACUACAGAAAUGUAGUUGACGCGGAGGAGGUUUGUCGAAUUUUCGGCGGAUGCCUGCAAA [A36C A48G C70G],< 1e-05
17,AUAAAAGCGCCAGAACUACAGAAAUGUAGUUGACGAGCAGGAGGUUUAUCGAAUUUUCGCCGGAUUCCUCCAAA [G38C G60C G66U],< 1e-05
18,AUAAAAGCGCCAGAACUACAGAAAUGUAGUUGACGAAGAGGAGGUUUAUCGAGUGUUCGGCGGAGGCCUCCAAA [G37A A53G U55G U65G],8.03e-05 ± 1.8e-05

row,Variant,self-cleavage kobs at 2500 uM GlcN6P [s⁻¹]
1,AUAAAAGCGCCAGAACUACAGAAAUGUAGUUGACGACGAGGCGGUUUCUCGAAUUUUCGGCGGUUGCCUCCAAA [G37C A42C A48C A64U],< 1e-05
2,AUAAAAGCGCCAGAACUACAGAAAUGUAGUUGACGAUGAGGAGGUGUAUCGUAUUUACGGCGGAUGCCUCCAAA [G37U U46G A52U U57A],< 1e-05
3,AUAAAAGCGCCAGAACUACAGAAAUGUAGUUGACGUGGAGGUGGUUUAUCGAAUUUUCUGCGGAUGCCUCCAAA [A36U A42U G59U],< 1e-05
4,AUAAAAGCGCCAGAACUACAGAAAUGUAGUUGACGACGAGGAGGAUUAUCGAAUUUUCGUCGGCUGCCUCCAAA [G37C U45A G60U A64C],< 1e-05
5,AUAAAAGCGCCAGAACUACAGAAAUGUAGUUGACGGGGAGGAGGUAUAUCGAAUUUUCGGCGGAUGCCUACAAA [A36G U46A C70A],< 1e-05
6,AUAAAAGCGCCAGAACUACAGAAAUGUAGUUGACGAAGAGGAGGUUUAUGGAACUUUCGGCGGAUGCCUCCAAA [G37A C50G U54C],0.000123 ± 4.8e-05
7,AUAAAAGCGCCAGAACUACAGAAAUGUAGUUGACGAUUAGGAGGUUUACCGAAUUUUCAGCGGAUGCCUCCAAA [G37U G38U U49C G59A],< 1e-05
8,AUAAAAGCGCCAGAACUACAGAAAUGUAGUUGACGAAGAGGAGGUUUAUCGAAUUUUCGGCGGCUGGCUCCAAA [G37A A64C C67G],< 1e-05
9,AUAAAAGCGCCAGAACUACAGAAAUGUAGUUGACGACGAGGAGGUUUAUUGAAUUUUCGGCGGAUGCCGCCAAA [G37C C50U U69G],6.01e-05 ± 2.6e-05
10,AUAAAAGCGCCAGAACUACAGAAAUGUAGUUGACGAGUAGGAAGUUCAUCGAAUUUUCGGCGGAUGUCUCCAAA [G38U G43A U47C C67U],< 1e-05
11,AUAAAAGCGCCAGAACUACAGAAAUGUAGUUGACGGGGAGAAGGUUUAUCGAAUUUUCGGCGGAUGUCUCCAAA [A36G G41A C67U],< 1e-05
12,AUAAAAGCGCCAGAACUACAGAAAUGUAGUUGACGACGAGGAGGUUUAUCGAAUAUUCGGCGGGUGCCUCCAAA [G37C U55A A64G],4.29e-05 ± 1.2e-05
13,AUAAAAGCGCCAGAACUACAGAAAUGUAGUUGACGAACAGGAGGUUUAUCGAAUUGUCGGCGGAUGCCUGCAAA [G37A G38C U56G C70G],6.06e-05 ± 1.5e-05
14,AUAAAAGCGCCAGAACUACAGAAAUGUAGUUGACGAGCUGGAGGUUUAUCGAGUUUUCGGCGGACGCCUCCAAA [G38C A39U A53G U65C],< 1e-05
15,AUAAAAGCGCCAGAACUACAGAAAUGUAGUUGACGAAGAGGAGGUUUAGCGUAUUUUCAGCGGAUGCCUCCAAA [G37A U49G A52U G59A],< 1e-05
16,AUAAAAGCGCCAGAACUACAGAAAUGUAGUUGACGAAGAGGAGGUUUAUCGAAUUUUCGGCCGUUGCCUCCAAA [G37A G62C A64U],< 1e-05
17,AUAAAAGCGCCAGAACUACAGAAAUGUAGUUGACGACUAGGAGGUUUAUCAAAGUUUCGGCGGAUGCCUCCAAA [G37C G38U G51A U54G],< 1e-05

# Variants of: B1
# Assay: self-cleavage kobs at 10000 uM GlcN6P; higher = faster cleavage; RNA array
# Conditions: with glucosamine-6-phosphate
# Summary of the method: as §1
row,Variant,self-cleavage kobs at 10000 uM GlcN6P [s⁻¹]
1,AUAAAAGCGCCAGAACUACAGAAAUGUAGUUGACGAGAAGGAGCUUUAUCGAAUUUUCGGCGGAUGCCUCCAAA [G38A G44C],< 1e-05
2,AUAAAAGCGCCAGAACUACAGAAAUGUAGUUGACGACGAGGAGGUUUAUCGAAUAUUCGGCGGGUGCCUCCAAA [G37C U55A A64G],6.99e-05 ± 1.4e-05
